Data set [1] addresses T1, TnpA (IS608 transposase, Y1 HuH) (UniProt Q933Z0 1-155).
T1 sequence: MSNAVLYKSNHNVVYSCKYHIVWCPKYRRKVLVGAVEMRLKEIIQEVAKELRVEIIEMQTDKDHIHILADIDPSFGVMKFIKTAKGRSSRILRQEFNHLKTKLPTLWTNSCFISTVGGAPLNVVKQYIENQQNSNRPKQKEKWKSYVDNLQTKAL
The experiment in a line: EMSA. A general note: In EMSA bound probe runs differently from free probe, usually more slowly.

In the next data set the target is Ssb (UniProt P0AGE0 1-178). The experiment in a line: EMSA.
In data set [2] the target is T1, TnpA (IS608 transposase, Y1 HuH). Put plainly: competition.
The data set “two-hybrid” concerns the molecule itself. The experiment in a line: two-hybrid.
For data set [3], the target named is T1, TnpA (IS608 transposase, Y1 HuH). The experiment in a line: EMSA. The source holds these as a separate data set.
For data set [4] the target is unchanged. Put plainly: EMSA. This is another data set of the same source.

Chain of Ssb (P0AGE0 whole entry): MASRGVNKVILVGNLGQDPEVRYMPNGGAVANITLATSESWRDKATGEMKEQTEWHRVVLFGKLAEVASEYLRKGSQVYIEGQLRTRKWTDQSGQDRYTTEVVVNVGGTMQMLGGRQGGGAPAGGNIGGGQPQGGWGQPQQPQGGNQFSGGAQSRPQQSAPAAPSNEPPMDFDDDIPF

B1: fork / flap (L73 + L76l + L77) (mixed)
DNA 1: GTGATGACCTGTCGCCTCTGCCCGAAGACTCTAGATCGATACAAGCTACGCCTCTCAGCTCCGATGATGACGCTC
DNA 2: GAGCGTCATCATCGGAGCTGAGAGGCGTAGCTTGTATCTAGGAAGCCGCTGTAGCTCTCGCAATCAGCAGCCTTGTGCCG
DNA 3: CGGCACAAGGCTGCTGATTGCGAGAGCTACAGCGGCTTCCTA
As to B1, the binding result in data set [1] is “binds”.

B2: ss target 125 nt (S56) (ssDNA)
DNA: GTGATGTCCTGTCGCCTCTGCCCGAAGACTCTATTACGATTCAAGCTTCGCCTCTCAGCTCCGATGATGTCGCTCATGCCTGCAGCAATGGCAACAACGAACGGCAAACTATTAACTGGCGAACT
For the molecule B2, the binding result with Ssb is reported as “binds”.

B3: LE100 (structured_DNA)
DNA: CGGGCTGCAGGAATTCGATTTGCGCTAGTGCAAAAATTACCAAAACTAACGCCTTAAAGCCCCTAGCTTTTAGCTATGGGGATACAAGGCGAAACGCCTT
Consider B3, for which the binding result in data set [2] was “binds”.

B4: TnpAIS608, transposase of IS608, BACTH hybrid (T25-TnpAIS608 or TnpAIS608-T18) (enzyme, Helicobacter pylori (IS608), UniProt Q933Z0 1-155, looked up)
chain: T1 sequence
B4: the “β-galactosidase activity, fold above negative control” value in the data set “two-hybrid” was found to be 5 fold.

B5: ss60 (LE80 with 60-nt ss tail, S46) (structured_DNA)
DNA: CGCTAGTGCAAAAATTACCAAAACTAACGCCTTAAAGCCCCTAGCTTTTAGCTATGGGGATACAAGGCGAAACGCCTTCTGATGTCCTGTCGCCTCTGCCCGAAGACTCTAGATCGATTCAAGCTTCGCCTCTCAGCT
With B5, in data set [3], the binding result is listed as “binds”.

B6: ds60 (S46 + S44) (mixed)
DNA 1: B5 DNA
DNA 2: AGCTGAGAGGCGAAGCTTGAATCGATCTAGAGTCTTCGGGCAGAGGCGACAGGACATCAG
As to B6, in data set [4], the binding result was “binds”.

For the origin of these results see publication PMC5027513 (Nucleic Acids Research, 2016).
